Experimental data from paper PMC8580825, “Scaffolding protein CcmM directs multiprotein phase separation in β-carboxysome biogenesis” (Nature Structural & Molecular Biology, 2021).

How the values were obtained:
[1] = biological target: T1, RbcL8 core complex of Rubisco (Synechococcus elongatus PCC 7942); test: turbidity assay; 0.25 μM RbcL8 with M58red or M58ox at varied concentrations; M35red or M35ox with RbcL8 as controls; 50–200 mM KCl; conditions: both partners purified
T1 chain: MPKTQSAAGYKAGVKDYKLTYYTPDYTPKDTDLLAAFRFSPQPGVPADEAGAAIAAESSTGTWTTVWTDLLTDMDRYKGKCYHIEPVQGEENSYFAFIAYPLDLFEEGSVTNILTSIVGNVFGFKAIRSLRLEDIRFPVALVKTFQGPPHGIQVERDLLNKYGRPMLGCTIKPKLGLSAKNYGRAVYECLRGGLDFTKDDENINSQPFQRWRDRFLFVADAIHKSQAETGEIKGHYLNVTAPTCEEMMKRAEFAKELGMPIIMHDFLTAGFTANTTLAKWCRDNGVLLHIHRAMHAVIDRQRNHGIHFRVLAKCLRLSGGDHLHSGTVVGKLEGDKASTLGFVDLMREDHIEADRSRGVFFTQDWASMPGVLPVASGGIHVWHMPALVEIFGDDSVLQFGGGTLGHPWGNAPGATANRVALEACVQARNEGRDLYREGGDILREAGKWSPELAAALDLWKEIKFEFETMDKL

[2] = biological target: CcmM full-length protein M58 of Synechococcus elongatus PCC 7942 (Synechococcus elongatus PCC 7942) (UniProt Q03513); test: SEC-MALS; 2 mg/ml protein; 50 mM Tris-HCl pH 8.0/150 mM KCl or 50 mM Tris-HCl pH 8.0/500 mM KCl/5 mM DTT; 25 °C; oligomeric state in solution

fold lower affinity than for the Rubisco holoenzyme [1]: ~4 fold
stoichiometry N [2]: 3
B1: CcmM full-length protein M58 of Synechococcus elongatus PCC 7942 (natural protein, UniProt Q03513 1-539, looked up)
chain: MPSPTTVPVATAGRLAEPYIDPAAQVHAIASIIGDVRIAAGVRVAAGVSIRADEGAPFQVGKESILQEGAVIHGLEYGRVLGDDQADYSVWIGQRVAITHKALIHGPAYLGDDCFVGFRSTVFNARVGAGSVIMMHALVQDVEIPPGRYVPSGAIITTQQQADRLPEVRPEDREFARHIIGSPPVIVRSTPAATADFHSTPTPSPLRPSSSEATTVSAYNGQGRLSSEVITQVRSLLNQGYRIGTEHADKRRFRTSSWQPCAPIQSTNERQVLSELENCLSEHEGEYVRLLGIDTNTRSRVFEALIQRPDGSVPESLGSQPVAVASGGGRQSSYASVSGNLSAEVVNKVRNLLAQGYRIGTEHADKRRFRTSSWQSCAPIQSSNERQVLAELENCLSEHEGEYVRLLGIDTASRSRVFEALIQDPQGPVGSAKAAAAPVSSATPSSHSYTSNGSSSSDVAGQVRGLLAQGYRISAEVADKRRFQTSSWQSLPALSGQSEATVLPALESILQEHKGKYVRLIGIDPAARRRVAELLIQKP
notes: CcmM (M58, ~58 kDa), Synechococcus elongatus PCC 7942; full-length ccmM gene amplified from genomic DNA; SeCcmM (1-539); Used reduced (M58red, 5 mM DTT) or oxidized (M58ox, 2 mM H2O2; disulfides in SSUL modules); For microscopy labelled at the N terminus with Alexa532 and mixed 1:10 with unlabelled protein; also called SeM58; M58red; source: E. coli BL21 (DE3), purified (Ni-NTA, H6Ub cleaved with …)
